{
  "source": "patent US20020088017A1",
  "about": "“Adenosine deaminase deficient transgenic mice and methods for the use thereof” (Board of Regents, The University of Texas System, priority 1999, published 2002)",
  "molecules": {"B1": {"name": "PEGADA: ADA polypeptides conjugated to polyethylene glycol; also known as ADAGEN, obtained from Enzon Inc. (protein, UniProt P56658 2-363, looked up)", "Adenosine deaminase": "AQTPAFNKPKVELHVHLDGAIKPETILYYGRKRGIALPADTPEELQNIIGMDKPLSLPEFLAKFDYYMPAIAGCREAVKRIAYEFVEMKAKDGVVYVEVRYSPHLLANSKVEPIPWNQAEGDLTPDEVVSLVNQGLQEGERDFGVKVRSILCCMRHQPSWSSEVVELCKKYREQTVVAIDLAGDETIEGSSLFPGHVKAYAEAVKSGVHRTVHAGEVGSANVVKEAVDTLKTERLGHGYHTLEDATLYNRLRQENMHFEVCPWSSYLTGAWKPDTEHPVVRFKNDQVNYSLNTDDPLIFKSTLDTDYQMTKNEMGFTEEEFKRLNINAAKSSFLPEDEKKELLDLLYKAYGMPSPASAEQCL", "modifications": "PEG conjugate (pegademase)"}},
  "key": {"[1]": {"system": "ADA deficient mice", "test": "PEGADA enzyme therapy of ADA deficient mice: respiratory status and survival", "type": "in vivo", "text": "The inventors contemplate that PEGADA treatments may be chronic or acute. In preferred chromic treatments a constant level of PEGADA is maintained in the mouse at concentrations of 150 to 300 U/Kg. In preferred acute treatments, a single dose of PEGADA (300 U/Kg) is given.\nFor chronic treatment of the mice of the present invention, litters are given an intramuscular injection of PEGADA at four days of postnatal file. The initial dose of PEGADA given is approximately 300 U/Kg body weight, where U (unit) is defined as 1 μmole adenosine converted to inosine per minute. this dose is within an order of magnitude of that given to treat ADA deficient humans. Mice were treated every four days with a dose of 150 to 300 U/Kg.\nFor acute treatment of the mice of the present invention, mice are injected intramuscularly once on postnatal day 18 with 300 U/kg PEGADA.\n(§1) PEGADA, also known as ADAGEN, was obtained through collaboration with Enzon Inc. (Piscataway, N.J.). Control or ADA deficient mice were lightly anesthetized and injected intramuscularly with 10 microlitetrs of PEGADA corresponding to approximately 2.5 Units of ADA. […] Levels of ADA enzyme activity in tissues was measured using zymogram analysis according to established procedures (Blackburn et al., 1998). This procedure visualizes enzyme activity on non-denaturing agarose gels (Blackburn et al., 1998).\nPolyethylene glycol modified ADA (PEGADA) enzyme therapy is a lifesaving strategy used to treat ADA deficient humans (Hershfield et al., 1993). […] The inventors treated ADA deficient mice with intramuscular injections of PEGADA (ENZON, Inc.; Piscataway, N.J.) in an attempt to modulate the respiratory distress seen. Mice were treated intramuscularly with 300 units of PEGADA. […] Even more striking was the observation that PEGADA could reverse the phenotype of an ADA deficient animal after its onset. ADA deficient animals were allowed to develop severe lung inflammation and damage (day 17), and were then treated with PEGADA."}, "[2]": {"system": "ADA deficient mice", "test": "Cellular differentials in bronchial alveolar lavage fluid (BALF) after PEGADA", "type": "in vivo", "method": "FIG. 5A and FIG. 5B. Reversible lung eosinophilia and lung adenosine levels in ADA deficient mice treated with PEGADA. FIG. 5A, Total cellular differentials of cells collected from BALF of 18-day old control mice (n=19), ADA deficient mice (n=12) and ADA deficient mice treated with PEGADA and examined 72 hours later (n=5). Differentials were determined by counting 200 cells from BALF cytospins of each sample, and multiplying the percentage of each cell type found by the total number of cells in the BALF. Mean values are given as total cells (S.E.M.). FIG. 5B, Adenosine levels were quantitated in the lungs of 18-day old control mice (n=5), ADA deficient mice (n=4), and ADA deficient mice treated with PEGADA and examined 72 hours later (n=4). Mean values are given as nanomoles adenosine per mg protein±S.E.M.\nMice were anesthetized with avertin and the trachea exposed using blunt dissection. After securing a blunted 21-gauge needle into the trachea, the lungs were lavaged 5 times with 0.25 ml PBS. Lavages from individual animals were pooled and on average 0.95 to 1 ml of lavage fluid was recovered. Samples were centriflged at 2,500 rpm for 5 min to recover cells. Supernatant from these spins were collected and stored at −70 degrees C. for the analysis of cytokines. Cells were resuspended in 200 microliter PBS, an aliquot counted using a hemocytometer and another aliquot cytospun onto microscope slides where cells were stained with Diff-Quick (Dade) for cellular differentials. […] cells per sample were identified and counted under oil immersion.\nPEGADA, also known as ADAGEN, was obtained through collaboration with Enzon Inc. (Piscataway, N.J.). […] Levels of ADA enzyme activity in tissues was measured using zymogram analysis according to established procedures (Blackburn et al., 1998). […]\n(§2) Cell populations were monitored in BALF collected from ADA deficient mice 72 hours following treatment with PEGADA (FIG. 5A), in order to determine what effect PEGADA treatment had on lung inflammation. […]"}, "[3]": {"system": "ADA deficient mice", "test": "ELISA of serum IgE and BALF cytokines after PEGADA", "type": "in vivo", "details": "PEGADA enzyme therapy", "method": "IFNg, IL-4 and IL-5 levels in BALF were determined using specific murine OptiEA ELISA kits from Pharmagen according to manufactures instructions. For the analysis of IgE levels, blood was collected from the heart of anesthetized mice and the serum separated by centrifugation of samples at 3,000 rpm for 10 min a 4 degrees C. A murine OptiEA ELISA kit from Pharmagen was utilized to quantitate serum IgE levels. Values were read and quantitated at linerarity using a MRX II plate reader equipped with Revelation software (Dynex Technologies).\nPEGADA, also known as ADAGEN, was obtained through collaboration with Enzon Inc. (Piscataway, N.J.). Control or ADA deficient mice were lightly anesthetized and injected intramuscularly with 10 microlitetrs of PEGADA corresponding to approximately 2.5 Units of ADA. Injections were given either chronically every 4 days starting at postnatal day 4, or acutely, as one injection on postnatal day 18. Levels of ADA enzyme activity in tissues was measured using zymogram analysis according to established procedures (Blackburn et al., 1998). This procedure visualizes enzyme activity on non-denaturing agarose gels (Blackburn et al., 1998).\nas §2"}, "[4]": {"system": "adenosine in the lungs of ADA deficient mice", "test": "Quantification of adenosine in lungs (reversed phase HPLC) after PEGADA", "type": "in vivo", "method": "FIG. 5A and FIG. 5B. Reversible lung eosinophilia and lung adenosine levels in ADA deficient mice treated with PEGADA. FIG. […] Differentials were determined by counting 200 cells from BALF cytospins of each sample, and multiplying the percentage of each cell type found by the total number of cells in the BALF. Mean values are given as total cells (S.E.M.). FIG. […] Mean values are given as nanomoles adenosine per mg protein±S.E.M.\nas §1, with “This procedure visualizes enzyme activity on non-denaturing agarose gels (Blackburn et al., 1998).” left out\nMice were anesthetized with avertin, the thoracic cavity exposed, and the lungs were removed and frozen rapidly in liquid nitrogen to prevent metabolism of adenine nucleotides and nucleosides. Adenine nucleosides were extracted from frozen lungs using 0.4 N perchloric acid as described (Knudsen et al., 1992), and adenosine was separated and quantitated using reversed phase HPLC according to established procedures (Knudsen et al., 1992). […]"}, "[5]": {"system": "ADA deficient humans", "details": "weekly intramuscular injection; cited from earlier work"}, "[6]": {"details": "weekly intramuscular injections of PEGADA from birth"}, "[7]": {"details": "72 hours following treatment with PEGADA"}},
  "data": [
    {"molecule": "B1", "values": [
      {"measurement": "rescue of ADA deficient mice that without treatment die by three weeks of age", "setting": "[1]; chronic treatment, intramuscular, approx. 300 U/Kg at postnatal day 4, then every four days 150 to 300 U/Kg", "value": "sufficient to rescue ADA deficient mice"},
      {"measurement": "recovery and survival", "setting": "[1]; treated after onset of severe lung inflammation and damage (day 17)", "value": "recovered and survived as long as they were maintained on PEGADA"},
      {"measurement": "respiratory status", "setting": "[1]; treated after onset of severe lung inflammation and damage (day 17), within 24 to 48 hours", "value": "noticeably improved"},
      {"measurement": "development of pulmonary problems", "setting": "[1]; [6]", "value": "never develop pulmonary problems"},
      {"measurement": "survival", "setting": "[1]; [6]", "value": "survive as long as the animals are maintained on PEGADA"},
      {"measurement": "outcome when PEGADA therapy was stopped", "setting": "[1]; withdrawal of PEGADA therapy", "value": "rapidly showed signs of pulmonary insufficiency and died within a week"},
      {"measurement": "alveolar macrophages in BALF", "setting": "[2]; [7]", "value": "remained elevated"},
      {"measurement": "number of eosinophils in BALF", "setting": "[2]; [7]", "value": "greatly reduced"},
      {"measurement": "number of eosinophils found in the BALs", "setting": "[2]; treatment with PEGADA, as stated in Example 9", "value": "decrease in the number of eosinophils"},
      {"measurement": "levels of BALF cytokines", "setting": "[3]", "value": "no effect"},
      {"measurement": "levels of serum IgE", "setting": "[3]", "value": "no effect"},
      {"measurement": "accumulation of adenosine in the lung", "setting": "[4]", "value": "prevents the accumulation of adenosine in the lung"},
      {"measurement": "adenosine levels in ADA deficient lungs", "setting": "[4]; 72 hrs following treatment with PEGADA, control < 0.2, untreated ADA deficient 6.3 nmoles/mg protein", "value": "lowered to near control levels"},
      {"measurement": "accumulation of ADA substrates in ADA deficient humans", "setting": "[5]", "value": "prevents the accumulation of ADA substrates"}
    ]}
  ]
}
